{"source": "paper PMC4516936", "about": "(Toxins, 2015)", "molecules": {"B1": {"name": "CTA2/CTB5 complex (complex)", "chain 1": "MSNTCDEKTQSLGVKFLDEYQSKVKRQIFSGYQSDIDTHNRIKDEL", "chain 2": "TPQNITDLCAEYHNTQIYTLNDKIFSYTESLAGKREMAIITFKNGAIFQVEVPGSQHIDSQKKAIERMKDTLRIAYLTEAKVEKLCVWNNKTPHAIAAISMAN", "notes": "copies: + 5"}}, "key": {"[1]": {"target": "cholera toxin A2 CTA2 (Vibrio cholerae) (UniProt P01555)", "assay": "SPR", "details": "cited from earlier work"}, "[2]": {"target": "cholera toxin A1 subunit (CTA1), reduced, free (UniProt P01555 19-212)", "sequence (P01555 19-212)": "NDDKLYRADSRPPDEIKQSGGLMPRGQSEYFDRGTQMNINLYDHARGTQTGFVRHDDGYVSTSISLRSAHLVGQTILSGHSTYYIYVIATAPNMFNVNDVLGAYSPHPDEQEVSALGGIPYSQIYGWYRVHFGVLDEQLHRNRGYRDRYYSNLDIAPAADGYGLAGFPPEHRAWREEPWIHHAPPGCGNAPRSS", "assay": "SPR", "details": "both partners purified"}}}
{"molecule": "cholera toxin A1 CTA1 (from UniProt P01555)", "values": [{"measurement": "Kd", "setting": "[1]", "value": 53, "unit": "nM"}]}
{"molecule": "B1", "values": [{"measurement": "kon", "setting": "[2]", "value": 521, "unit": "M⁻¹ s⁻¹"}]}
